Source: PMC9482650, “Quantitative fragmentomics allow affinity mapping of interactomes” (Nature Communications, 2022)

Columns and labels:
Assay in all cases: holdup assay
Set-up in all cases: key: below the threshold = too weak to quantify, mostly under pKd 3.1 to 4
SCRIB_3, Q14160 = target: SCRIB_3, Q14160
MAGI1_2, Q96QZ7 = target: MAGI1_2, Q96QZ7
NHERF2_2, Q15599 = target: NHERF2_2, Q15599
NHERF3_4, Q5T2W1 = target: T1, NHERF3_4, Q5T2W1
T1 sequence (Q5T2W1 373-468, limits assumed, looked up): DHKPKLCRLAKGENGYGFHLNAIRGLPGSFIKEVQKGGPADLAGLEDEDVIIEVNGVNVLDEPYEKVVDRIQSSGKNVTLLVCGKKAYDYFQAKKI

MPP7, Q5T2T1 = target: T2, MPP7, Q5T2T1
T2 sequence (Q5T2T1 134-230, limits assumed, looked up): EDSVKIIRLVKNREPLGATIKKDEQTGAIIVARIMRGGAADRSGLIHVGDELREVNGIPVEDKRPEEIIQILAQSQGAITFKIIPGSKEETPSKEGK

LIN7A, O14910 = target: T3, LIN7A, O14910
T3 sequence (O14910 103-200, limits assumed, looked up): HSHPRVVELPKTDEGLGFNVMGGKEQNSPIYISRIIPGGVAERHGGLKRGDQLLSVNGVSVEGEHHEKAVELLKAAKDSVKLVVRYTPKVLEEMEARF

NHERF4_2, Q86UT5 = target: NHERF4_2, Q86UT5
SNTG1, Q9NSN8 = target: T4, SNTG1, Q9NSN8
T4 sequence (Q9NSN8 52-150, limits assumed, looked up): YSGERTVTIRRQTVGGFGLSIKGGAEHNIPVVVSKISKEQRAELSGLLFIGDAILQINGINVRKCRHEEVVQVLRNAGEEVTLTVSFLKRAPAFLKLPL

GRIP2_7, Q9C0E4 = target: GRIP2_7, Q9C0E4
DLG3_2, Q92796 = target: T5, DLG3_2, Q92796
T5 sequence (Q92796 221-321, limits assumed, looked up): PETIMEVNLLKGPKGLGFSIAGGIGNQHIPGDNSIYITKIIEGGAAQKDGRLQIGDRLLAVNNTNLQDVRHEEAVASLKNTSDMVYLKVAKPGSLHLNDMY

MAGI2_5, Q86UL8 = target: MAGI2_5, Q86UL8
Inadl_9, Q8NI35 = target: Inadl_9, Q8NI35
LIMK2, P53671 = target: LIMK2, P53671
PICK1, Q9NRD5 = target: PICK1, Q9NRD5
MAST1, Q9Y2H9 = target: MAST1, Q9Y2H9
PARD3B_1, Q8TEW8 = target: T6, PARD3B_1, Q8TEW8
T6 sequence (Q8TEW8 196-299, limits assumed, looked up): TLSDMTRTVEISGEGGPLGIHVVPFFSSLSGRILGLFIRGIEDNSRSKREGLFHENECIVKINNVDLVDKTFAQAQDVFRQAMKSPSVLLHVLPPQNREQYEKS

HTRA4, P83105 = target: T7, HTRA4, P83105
T7 sequence (P83105 378-476, limits assumed, looked up): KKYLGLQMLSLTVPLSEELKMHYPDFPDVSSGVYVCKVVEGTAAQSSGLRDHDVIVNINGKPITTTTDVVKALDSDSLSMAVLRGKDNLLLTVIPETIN

SNTG2, Q9NY99 = target: T8, SNTG2, Q9NY99
T8 sequence (Q9NY99 68-166, limits assumed, looked up): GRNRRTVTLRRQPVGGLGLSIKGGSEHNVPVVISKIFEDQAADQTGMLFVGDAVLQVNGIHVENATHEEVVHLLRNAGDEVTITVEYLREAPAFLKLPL

Inadl_3, Q8NI35 = target: Inadl_3, Q8NI35
RAPGEF6, Q8TEU7 = target: T9, RAPGEF6, Q8TEU7
T9 sequence (Q8TEU7 525-625, limits assumed, looked up): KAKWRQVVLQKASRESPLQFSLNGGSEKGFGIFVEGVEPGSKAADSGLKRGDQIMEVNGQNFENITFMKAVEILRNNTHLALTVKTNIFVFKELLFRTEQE

PDZRN3_1, Q9UPQ7 = target: T10, PDZRN3_1, Q9UPQ7
T10 sequence (Q9UPQ7 244-349, limits assumed, looked up): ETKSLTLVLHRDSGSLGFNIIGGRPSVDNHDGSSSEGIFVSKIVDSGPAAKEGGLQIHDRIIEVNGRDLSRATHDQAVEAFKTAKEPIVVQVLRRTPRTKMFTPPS

MAGI2_3, Q86UL8 = target: MAGI2_3, Q86UL8
LNX1_1, Q8TBB1 = target: LNX1_1, Q8TBB1
IL16_3, Q14005 = target: IL16_3, Q14005
FRMPD4, Q14CM0 = target: FRMPD4, Q14CM0
DLG4_1, P78352 = target: DLG4_1, P78352
HTRA1, Q92743 = target: HTRA1, Q92743
[1] = plain residues with an end cap or a label only (N-terminal biotin on a linker: ttds)
[2] = plain residues with an end cap or a label only (N-terminal biotin on a linker: ado-ado)

Sequence of MAGI2_5, Q86UL8 (Q86UL8 915-1017): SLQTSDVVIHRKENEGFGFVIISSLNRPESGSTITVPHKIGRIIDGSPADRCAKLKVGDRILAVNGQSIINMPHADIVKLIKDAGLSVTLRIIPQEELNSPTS
Sequence of Inadl_9, Q8NI35 (Q8NI35 1530-1615): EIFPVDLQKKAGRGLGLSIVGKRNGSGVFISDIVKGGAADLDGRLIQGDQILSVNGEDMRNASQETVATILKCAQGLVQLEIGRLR
Sequence of MAST1, Q9Y2H9 (Q9Y2H9 962-1065): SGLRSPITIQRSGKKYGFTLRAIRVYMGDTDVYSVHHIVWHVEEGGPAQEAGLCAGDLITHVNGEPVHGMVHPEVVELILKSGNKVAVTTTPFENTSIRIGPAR
Sequence of IL16_3, Q14005 (Q14005 1107-1207): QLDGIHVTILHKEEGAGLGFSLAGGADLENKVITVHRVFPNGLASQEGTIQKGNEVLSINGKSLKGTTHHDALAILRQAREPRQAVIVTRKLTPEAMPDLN
Sequence of NHERF2_2, Q15599 (Q15599 142-238): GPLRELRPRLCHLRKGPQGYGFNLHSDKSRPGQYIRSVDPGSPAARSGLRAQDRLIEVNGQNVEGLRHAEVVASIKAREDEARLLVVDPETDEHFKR
Sequence of FRMPD4, Q14CM0 (Q14CM0 67-160): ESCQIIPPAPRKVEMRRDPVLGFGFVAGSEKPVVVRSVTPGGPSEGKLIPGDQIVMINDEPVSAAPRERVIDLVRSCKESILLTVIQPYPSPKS
Sequence of DLG4_1, P78352 (P78352 62-152): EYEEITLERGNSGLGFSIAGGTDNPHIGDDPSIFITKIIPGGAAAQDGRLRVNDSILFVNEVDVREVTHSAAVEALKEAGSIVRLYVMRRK
Sequence of MAGI2_3, Q86UL8 (Q86UL8 600-682): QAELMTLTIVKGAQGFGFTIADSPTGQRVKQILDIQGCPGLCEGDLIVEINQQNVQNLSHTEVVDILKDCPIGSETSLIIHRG
Sequence of LNX1_1, Q8TBB1 (Q8TBB1 261-371): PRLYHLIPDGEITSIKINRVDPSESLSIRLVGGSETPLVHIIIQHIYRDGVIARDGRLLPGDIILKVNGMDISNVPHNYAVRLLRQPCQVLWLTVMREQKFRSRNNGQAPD
Sequence of NHERF4_2, Q86UT5 (Q86UT5 220-308): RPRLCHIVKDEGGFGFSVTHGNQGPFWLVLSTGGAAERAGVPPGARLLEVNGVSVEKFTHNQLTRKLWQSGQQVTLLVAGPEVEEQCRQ
Sequence of Inadl_3, Q8NI35 (Q8NI35 359-469): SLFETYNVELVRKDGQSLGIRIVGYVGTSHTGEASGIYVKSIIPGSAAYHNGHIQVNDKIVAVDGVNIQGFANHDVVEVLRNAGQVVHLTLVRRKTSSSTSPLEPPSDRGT
Sequence of GRIP2_7, Q9C0E4 (Q9C0E4 934-1023): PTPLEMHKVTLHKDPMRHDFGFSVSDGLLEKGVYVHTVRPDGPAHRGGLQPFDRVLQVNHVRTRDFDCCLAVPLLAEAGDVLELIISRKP
Sequence of LIMK2, P53671 (P53671 143-248): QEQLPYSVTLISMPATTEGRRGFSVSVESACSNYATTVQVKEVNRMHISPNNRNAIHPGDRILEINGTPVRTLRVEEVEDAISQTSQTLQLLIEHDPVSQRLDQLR
Sequence of SCRIB_3, Q14160 (Q14160 999-1103): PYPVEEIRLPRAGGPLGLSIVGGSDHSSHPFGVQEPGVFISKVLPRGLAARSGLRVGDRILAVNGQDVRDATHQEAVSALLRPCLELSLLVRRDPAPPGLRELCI
Sequence of PICK1, Q9NRD5 (Q9NRD5 17-115): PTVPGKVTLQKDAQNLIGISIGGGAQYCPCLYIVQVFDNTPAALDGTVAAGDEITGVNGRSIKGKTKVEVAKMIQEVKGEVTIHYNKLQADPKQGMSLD
Sequence of HTRA1, Q92743 (Q92743 360-477): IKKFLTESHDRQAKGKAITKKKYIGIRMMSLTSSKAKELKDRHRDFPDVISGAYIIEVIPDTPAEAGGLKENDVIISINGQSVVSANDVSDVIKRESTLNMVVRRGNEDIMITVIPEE
Sequence of MAGI1_2, Q96QZ7 (Q96QZ7 456-580): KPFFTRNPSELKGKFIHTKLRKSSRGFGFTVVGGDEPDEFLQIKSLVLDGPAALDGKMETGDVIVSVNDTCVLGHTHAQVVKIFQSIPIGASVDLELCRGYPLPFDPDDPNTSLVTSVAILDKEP

Binder: NYWPGKETQL [SLCO1C1, Q9NYB5]
- pKd (SCRIB_3, Q14160; [1]): 5.6
- pKd (MAGI1_2, Q96QZ7; [1]): 4.15
- pKd (NHERF2_2, Q15599; [1]): 4.69
- pKd (NHERF3_4, Q5T2W1; [1]): below the threshold
- pKd (MPP7, Q5T2T1; [1]): below the threshold
- pKd (LIN7A, O14910; [1]): 4.14
- pKd (NHERF4_2, Q86UT5; [1]): below the threshold
- pKd (SNTG1, Q9NSN8; [1]): 5.39
- pKd (GRIP2_7, Q9C0E4; [1]): below the threshold
- pKd (DLG3_2, Q92796; [1]): 4.88
- pKd (MAGI2_5, Q86UL8; [1]): 3.87
- pKd (Inadl_9, Q8NI35; [1]): below the threshold
- pKd (LIMK2, P53671; [1]): below the threshold
- pKd (PICK1, Q9NRD5; [1]): below the threshold
- pKd (MAST1, Q9Y2H9; [1]): 5.26
- pKd (PARD3B_1, Q8TEW8; [1]): 3.7
- pKd (HTRA4, P83105; [1]): below the threshold
- pKd (SNTG2, Q9NY99; [1]): 5.28
- pKd (Inadl_3, Q8NI35; [1]): below the threshold
- pKd (RAPGEF6, Q8TEU7; [1]): below the threshold
- pKd (PDZRN3_1, Q9UPQ7; [1]): 5.71
- pKd (MAGI2_3, Q86UL8; [1]): below the threshold
- pKd (LNX1_1, Q8TBB1; [1]): below the threshold
- pKd (IL16_3, Q14005; [1]): below the threshold
- pKd (FRMPD4, Q14CM0; [1]): 4.35
- pKd (DLG4_1, P78352; [1]): 4.29
- pKd (HTRA1, Q92743; [1]): below the threshold

Binder: LDSQIQETSI [MAP4, P27816]
- pKd (SCRIB_3, Q14160; [1]): 5.17
- pKd (MAGI1_2, Q96QZ7; [1]): below the threshold
- pKd (NHERF2_2, Q15599; [1]): 4.48
- pKd (NHERF3_4, Q5T2W1; [1]): below the threshold
- pKd (MPP7, Q5T2T1; [1]): below the threshold
- pKd (LIN7A, O14910; [1]): below the threshold
- pKd (NHERF4_2, Q86UT5; [1]): below the threshold
- pKd (SNTG1, Q9NSN8; [1]): 5.31
- pKd (GRIP2_7, Q9C0E4; [1]): below the threshold
- pKd (DLG3_2, Q92796; [1]): 3.93
- pKd (MAGI2_5, Q86UL8; [1]): 3.5
- pKd (Inadl_9, Q8NI35; [1]): below the threshold
- pKd (LIMK2, P53671; [1]): below the threshold
- pKd (PICK1, Q9NRD5; [1]): below the threshold
- pKd (MAST1, Q9Y2H9; [1]): 4.56
- pKd (PARD3B_1, Q8TEW8; [1]): below the threshold
- pKd (HTRA4, P83105; [1]): below the threshold
- pKd (SNTG2, Q9NY99; [1]): 5.22
- pKd (Inadl_3, Q8NI35; [1]): below the threshold
- pKd (RAPGEF6, Q8TEU7; [1]): below the threshold
- pKd (PDZRN3_1, Q9UPQ7; [1]): 4.55
- pKd (MAGI2_3, Q86UL8; [1]): below the threshold
- pKd (LNX1_1, Q8TBB1; [1]): below the threshold
- pKd (IL16_3, Q14005; [1]): below the threshold
- pKd (FRMPD4, Q14CM0; [1]): below the threshold
- pKd (DLG4_1, P78352; [1]): 3.5
- pKd (HTRA1, Q92743; [1]): below the threshold

Binder: EDLTKNHDEL [RCN1, Q15293]
- pKd (SCRIB_3, Q14160; [2]): 3.57
- pKd (MAGI1_2, Q96QZ7; [2]): below the threshold
- pKd (NHERF2_2, Q15599; [2]): 3.74
- pKd (NHERF3_4, Q5T2W1; [2]): below the threshold
- pKd (MPP7, Q5T2T1; [2]): below the threshold
- pKd (LIN7A, O14910; [2]): below the threshold
- pKd (NHERF4_2, Q86UT5; [2]): below the threshold
- pKd (SNTG1, Q9NSN8; [2]): 3.64
- pKd (GRIP2_7, Q9C0E4; [2]): 3.59
- pKd (DLG3_2, Q92796; [2]): below the threshold
- pKd (MAGI2_5, Q86UL8; [2]): below the threshold
- pKd (Inadl_9, Q8NI35; [2]): below the threshold
- pKd (LIMK2, P53671; [2]): below the threshold
- pKd (PICK1, Q9NRD5; [2]): below the threshold
- pKd (MAST1, Q9Y2H9; [2]): 3.91
- pKd (PARD3B_1, Q8TEW8; [2]): below the threshold
- pKd (HTRA4, P83105; [2]): below the threshold
- pKd (SNTG2, Q9NY99; [2]): below the threshold
- pKd (Inadl_3, Q8NI35; [2]): below the threshold
- pKd (RAPGEF6, Q8TEU7; [2]): below the threshold
- pKd (PDZRN3_1, Q9UPQ7; [2]): 3.65
- pKd (MAGI2_3, Q86UL8; [2]): below the threshold
- pKd (LNX1_1, Q8TBB1; [2]): 3.6
- pKd (IL16_3, Q14005; [2]): below the threshold
- pKd (FRMPD4, Q14CM0; [2]): 4.09
- pKd (DLG4_1, P78352; [2]): 3.57
- pKd (HTRA1, Q92743; [2]): 3.5

Binder: DEDQHTQITKV [PTEN, P60484]
- pKd (SCRIB_3, Q14160; [1]): 3.94
- pKd (MAGI1_2, Q96QZ7; [1]): below the threshold
- pKd (NHERF2_2, Q15599; [1]): 4.29
- pKd (NHERF3_4, Q5T2W1; [1]): 3.53
- pKd (MPP7, Q5T2T1; [1]): below the threshold
- pKd (LIN7A, O14910; [1]): below the threshold
- pKd (NHERF4_2, Q86UT5; [1]): below the threshold
- pKd (SNTG1, Q9NSN8; [1]): 4.01
- pKd (GRIP2_7, Q9C0E4; [1]): 3.55
- pKd (DLG3_2, Q92796; [1]): 4.04
- pKd (MAGI2_5, Q86UL8; [1]): 4.15
- pKd (Inadl_9, Q8NI35; [1]): below the threshold
- pKd (LIMK2, P53671; [1]): below the threshold
- pKd (PICK1, Q9NRD5; [1]): 3.77
- pKd (MAST1, Q9Y2H9; [1]): 4.79
- pKd (PARD3B_1, Q8TEW8; [1]): 3.72
- pKd (HTRA4, P83105; [1]): 3.62
- pKd (SNTG2, Q9NY99; [1]): 4.03
- pKd (Inadl_3, Q8NI35; [1]): 3.45
- pKd (RAPGEF6, Q8TEU7; [1]): below the threshold
- pKd (PDZRN3_1, Q9UPQ7; [1]): 4.23
- pKd (MAGI2_3, Q86UL8; [1]): 4.64
- pKd (LNX1_1, Q8TBB1; [1]): below the threshold
- pKd (IL16_3, Q14005; [1]): below the threshold
- pKd (FRMPD4, Q14CM0; [1]): below the threshold
- pKd (DLG4_1, P78352; [1]): 3.82
- pKd (HTRA1, Q92743; [1]): 4.27
